Values quoted from earlier work, collected in patent US8399407B2 (Case Western Reserve University, priority 2009, dated 2013).

Conditions: pH 7.4 and 37° C.

Substance: Asp^B28-insulin
- Susceptibility to fibrillation compared with human insulin: more susceptible to fibrillation
